Data on two molecules can be found in publication PMC6697735, “Generation of amine dehydrogenases with increased catalytic performance and substrate scope from ε-deaminating L-Lysine dehydrogenase” (Nature Communications, 2019).

The Ki is a measure of affinity in units of concentration, obtained from inhibition or displacement. Usually Km stands for the concentration of substrate that gives half-maximal velocity.

In data set [1] the target is T1, LE-AmDH-v1 (ε-deaminating L-lysine dehydrogenase LysEDH F173A) (Geobacillus stearothermophilus, UniProt Q9AJC6, F173A).
T1 construct: gene lysDH
As to the kind of experiment: steady-state kinetics, Lineweaver-Burk competitive product inhibition, NADH oxidation at […] nm, […] °C. It counts as biochemical.

Data set [2] deals with CC(=O)c1ccccc1. As to the kind of experiment: purified protein. The conditions noted are these: NADH model: phenyl ring in the new hydrophobic cavity created by F173A.
Data set [3] deals with O=Cc1ccccc1. Nature of the data set: purified protein. The conditions noted are these: NADH.

In data set [1], `C[C@@H](N)c1ccccc1` [(R)-8b] gave a Ki of 4.48 mM. As to “LE-AmDH-v1 (ε-deaminating L-lysine dehydrogenase LysEDH F173A) (Geobacillus stearothermophilus; F173A)”, the Km in data set [2] came out at 5.5 ± 0.5 mM; in data set [3], 4.9 ± 0.5 mM.
